Measurements as given in patent publication US5627154A, “Calcium channel blocking polypeptides from Heteropoda venatoria” (Pfizer Inc., priority 1995, dated 1997).
Where no end group is shown, it is not given here.

Columns and labels:
calcium channels [1] = details: read-out: IC50 values for blocking calcium channels; cerebellar granule cells from 8 day old rats, fura2 fluorescence, 37° C.
calcium channels [2] = biological target: calcium channels

COc1ccc(CCN(C)CCCC(C#N)(c2ccc(OC)c(OC)c2)C(C)C)cc1OC (stereo not shown) [Verapamil] gave an IC50 (calcium channels [1]) of 4800 nM.

Work on DDDCGWIMDDCTSDSDCCPNWVCSKTGFVKNICKYEM-NH2 (not fully specified (bridges); also: 3 disulfide bonds, pairing not given here) [Heteropoda peptide AU 5A] yielded an IC50 for blocking calcium channels (decrease in fura2 fluorescence) (calcium channels [2]) of less than 3000 nM.

Molecule DDCGGLFSGCDSNADCCEGYVCRLWCKYKL-NH2 (not fully specified (bridges); also: 3 disulfide bonds, pairing not given here) [Heteropoda peptide AU 2] has an IC50 for blocking calcium channels (decrease in fura2 fluorescence) (calcium channels [2]) of less than 3000 nM.

For ECGTLFSGCSTHADCCEGFICKLWCRYERTW-NH2 (disulfide (positions not given here)) [Heteropoda peptide KJ 7], the IC50 for blocking calcium channels (decrease in fura2 fluorescence) (calcium channels [2]) was less than 3000 nM.

DDCGKLFSGCDTNADCCEGYVCRLWCKLDW-NH2 (disulfide (positions not given here)) [Heteropoda peptide KJ 6] gave an IC50 for blocking calcium channels (decrease in fura2 fluorescence) (calcium channels [2]) of less than 3000 nM.

ECGTLFSGCSTHADCCEGFICKLWCRYERTW-NH2 (not fully specified (bridges); also: 3 disulfide bonds, pairing not given here) [Heteropoda peptide AU 5C] was tested, and the IC50 for blocking calcium channels (decrease in fura2 fluorescence) (calcium channels [2]) was less than 3000 nM.

DCGTIWHYCGTDQSECCEGWKCSRQLCKYVIDW-NH2 (not fully specified (bridges); also: 3 disulfide bonds, pairing not given here) [Heteropoda peptide KJ 5] gave an IC50 for blocking calcium channels (decrease in fura2 fluorescence) (calcium channels [2]) of less than 3000 nM.

ADCGWLFHSCESNADCCENWACATTGRFRYLCKYQI-NH2 (not fully specified (bridges); also: 3 disulfide bonds, pairing not given here) [Heteropoda peptide AU 5B] showed an IC50 for blocking calcium channels (decrease in fura2 fluorescence) (calcium channels [2]) of less than 3000 nM.

With DCGTIWHYCGTDQSECCEGWKCSRQLCKYVIDW-NH2 (not fully specified (bridges); also: 3 disulfide bonds, pairing not given here) [Heteropoda peptide AU 3] the IC50 for blocking calcium channels (decrease in fura2 fluorescence) (calcium channels [2]) was less than 3000 nM.

In the case of DDCGTLFSGCDTSKDCCEGYVCHLWCKYK-NH2 (not fully specified (bridges); also: 3 disulfide bonds, pairing not given here) [Heteropoda peptide KJ 1], the IC50 for blocking calcium channels (decrease in fura2 fluorescence) (calcium channels [2]) is reported as less than 3000 nM.
